We go through 2 molecules from US12497460B2, “Anti-MSR1 antibodies and methods of use thereof” (REGENERON PHARMACEUTICALS, INC., priority 2018, dated 2025).

The target of experiment [1] is T1, MSR1 on differentiated THP-1 cells (Homo sapiens, UniProt P21757).
T1 construct: endogenous in cells; host or cells: THP-1 cells differentiated with PMA
T1 sequence (P21757 1-451): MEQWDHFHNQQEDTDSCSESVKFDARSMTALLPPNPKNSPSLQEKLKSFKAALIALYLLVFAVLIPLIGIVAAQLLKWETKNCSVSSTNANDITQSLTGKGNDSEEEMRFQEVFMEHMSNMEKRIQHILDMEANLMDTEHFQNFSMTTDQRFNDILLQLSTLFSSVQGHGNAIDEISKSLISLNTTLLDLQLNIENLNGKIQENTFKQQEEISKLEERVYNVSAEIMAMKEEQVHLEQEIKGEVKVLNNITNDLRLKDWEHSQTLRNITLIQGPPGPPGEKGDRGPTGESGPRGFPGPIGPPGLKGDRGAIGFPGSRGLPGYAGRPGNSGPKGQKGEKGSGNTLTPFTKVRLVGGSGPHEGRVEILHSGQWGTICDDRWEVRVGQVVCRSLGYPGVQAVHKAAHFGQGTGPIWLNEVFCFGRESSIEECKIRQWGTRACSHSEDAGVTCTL
Briefly: Binding and internalization of cell-surface expressed MSR1 in differentiated THP-1 cells. Format: cell-based. The following applies: 10 μg/mL antibody; for Total Binding at 37° C. / Total Internalized RFU: 37° C. As to the method:
Exemplary anti-MSR1 antibodies were assessed for their ability to bind and internalize MSR1 on MSR1-expressing cells.
The THP-1 cells were allowed to differentiate for 4 days at 37° C. in 5% CO2. […] The remaining two plates were incubated at 37° C. for 1 hour followed by fixation and staining for 20 minutes using a solution of 4% PFA+5 μM DRAQ5 diluted in PBS (internalization plates). After fixation, all plates were washed once with PBS. […] The remaining plates were incubated with PBS only. Confocal images were acquired on the Opera Phenix (Perkin Elmer) at 40× magnification. […] The total binding at 4° C. (RFU values of 4° C. unquenched wells), total binding at 37° C. (RFU values of 37° C. unquenched wells), the total internalized RFU, and % Internalization were determined for each antibody as shown in Table 14.
For all calculations, background fluorescence from unstained wells was subtracted from every well. Total internalized RFU was calculated as follows: Total RFU of 37° C. unquenched samples−Surface RFU at 37° C. Surface RFU is defined as unquenched RFU at 37° C.−quenched RFU at 37° C.)/QE. QE (quenching efficiency) is defined as: 1−(Total RFU of 4° C. quenched sample/Total RFU of 4° C. unquenched sample). The % Internalization was determined from the following formula: (Total internalized RFU at 37° C./Total RFU at 37° C.)*100.

A further experiment concerns parental HEK293 cells. Put plainly: Electrochemiluminescence antibody binding assay, non-specific binding control cells. The class given is cell-based, human.
Experiment [2] concerns the target T2, His9-hMSR1 (human MSR1 extracellular domain) (Homo sapiens, UniProt P21757).
T2 construct: human MSR1 extracellular domain expressed with a N-terminal nonahistidine tag; His9 (nonahistidine) (N); purchased R&D Systems 2708-MS
T2 sequence (P21757 77-451 limits assumed): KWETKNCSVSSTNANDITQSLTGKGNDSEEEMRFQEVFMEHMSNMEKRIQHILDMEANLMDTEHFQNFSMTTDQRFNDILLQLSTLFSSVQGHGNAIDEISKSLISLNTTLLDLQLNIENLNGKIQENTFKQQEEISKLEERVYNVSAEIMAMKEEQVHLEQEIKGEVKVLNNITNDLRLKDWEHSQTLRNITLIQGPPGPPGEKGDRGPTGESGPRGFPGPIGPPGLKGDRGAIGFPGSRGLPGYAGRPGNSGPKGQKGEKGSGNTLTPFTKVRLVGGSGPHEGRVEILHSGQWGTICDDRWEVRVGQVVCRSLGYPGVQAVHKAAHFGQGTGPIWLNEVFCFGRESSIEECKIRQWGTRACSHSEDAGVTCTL
Put plainly: Biacore surface plasmon resonance binding kinetics of anti-MSR1 mAbs, antibody-capture format. The following applies: analyte His9-hMSR1, NB = no binding observed; for kd: * = no dissociation observed, kd manually fixed at 1.00E−05; for ka: antibody-capture format; for Kd: calculated from kinetic rates; for t½: dissociative half-life. As to the method: Binding affinities and kinetic constants of human anti-MSR1 antibodies for different MSR1 reagents were determined by real-time surface plasmon resonance (Biacore 4000). All binding studies were performed in 10 mM HEPES, 150 mM NaCl, 3 mM EDTA, and 0.05% v/v Surfactant Tween-20, pH 7.4 (HBS-ET) running buffer at 25° C. and 37° C.
The association rate (ka) and dissociation rate (kd) were determined by fitting the real-time binding sensorgrams to a 1:1 binding model with mass transport limitation using Scrubber 2.0c curve-fitting software. Binding dissociation equilibrium constant (KD) and dissociative half-life (t½) were calculated from the kinetic rates as: […]

Experiment [3] concerns the target T3, PMA-treated THP-1 cells (endogenously expressed human MSR1) (Homo sapiens, UniProt P21757).
T3 construct: endogenous in cells; host or cells: THP-1 cells differentiated with PMA
T3 sequence (P21757 1-451): T1 sequence (P21757 1-451)
Put plainly: Electrochemiluminescence antibody binding assay on MSR1-expressing cells. The class given is cell-based.

The target in experiment [4] is T4, MSR1-mediated Dil-AcLDL uptake in HEK293.Myc.hMSR1 cells (Homo sapiens, UniProt P21757).
T4 construct: expressed in transfected cells; host or cells: HEK293 (lentiviral transduction, hygromycin selection)
T4 sequence (P21757 1-451): T1 sequence (P21757 1-451)
Briefly: Ligand uptake assay, Dil-AcLDL. Format: cell-based. Particulars: 10 μg/mL Dil-AcLDL; for Dil-Acetylated LDL % Inhibition: maximum inhibition. Put shortly:
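HEK293 cells stably expressing Myc-tagged human MSR1 were pre-treated with antibody for 30 min, then given Dil-OxLDL or Dil-AcLDL at 10 μg/mL. Uptake measured as fluorescence (RFU); percent inhibition relative to ligand-only baseline and no-ligand background, EC50/IC50 from 4-parameter logistic fits.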

B1: H1H27734P-N297Q: one of "Twelve anti-MSR1 antibodies"; "made with an N297Q single point mutation in human Fcγ portion" (antibody, V domains shown)
VH: EVQLVESRGGLVQPGGSLRLSCAASGFTFSSYAMSWVRQAPGKGLEWVSAISGSGGSTFYADSVKGRFTISRDNSKNTVYLQMNSLRAEDTAVYYCAKALVLRFLEWLGDYWGQGTLVTVSS
VL: DIQMTQSPSTLSASVGDRVTITCRASQSISSWLAWFQQKPGKAPKLLIYKASSLESGVPSRFSGSGSGTEFTLTISSLQPDDFATYYCQQYKSYWTFGQGTKVEIKR
For B1, in experiment [1], the “Total Binding at 4° C.” value worked out at 482859, the “Total Binding at 37° C.” value is reported as 1151348 and the “Total Internalized RFU” value turned out to be 737425 RFU. Further, the “Ratio of 11 nM Antibody Binding Signal (RLU) to isotype control, HEK293” value with parental HEK293 cells was found to be 14. Further, in experiment [2] (25° C.), the kd was determined as 0.00111 s⁻¹ and the ka came out at 420000 M⁻¹ s⁻¹. In addition, in experiment [2] (37° C.), the kd worked out at 0.0019 s⁻¹ and the ka came to 1.09e+06 M⁻¹ s⁻¹. In addition, the “Ratio of 11 nM Antibody Binding Signal (RLU) to isotype control, PMA-treated THP-1” value in experiment [3] is given as 21. Besides, in experiment [4], the “Dil-Acetylated LDL IC50” value is given as “no inhibition”, the “maximum inhibition of Dil-AcLDL uptake” value is “no inhibition” and the “Dil-Acetylated LDL % Inhibition” value is “no inhibition”.

B2: H1H21227N-N297Q: "modified versions of 21227N (H1H21227N-N297Q and H1H21227N-N297D)"; anti-MSR1 antibody "with a N297Q single point mutation" (antibody, V domains shown)
VH: QVQLVQSGAEVKKPGASVKVSCKVSGYTLTELSIHWVRQVPGKGLEWMGGFDPEEGETIFAQEFRDRVTLTEDTSPDTAYMELSSLKSEDAAVYYCTTPRYCNNGICYDYWGQGTLVTVSS
VL: DIQMTQSPSSLSASVGDRVTITCRASQSISNYLNWYQQKPGKAPKLLIYTASSLQSGVPSRFSGSGSGTDFTLTISSLQTEDFATYYCQQSYSNFPITFGQGTRLEIKR
Regarding B2, in experiment [1], the “% Internalization” value came out at 78.5%, the “Total Binding at 4° C.” value stood at 1800012, the “Total Binding at 37° C.” value was 4110990 and the “Total Internalized RFU” value turned out to be 3226161 RFU. Also, the “Ratio of 11 nM Antibody Binding Signal (RLU) to isotype control, HEK293” value in the experiment with parental HEK293 cells was found to be 1. Further, in experiment [2] (25° C.), the kd is 4.89e-05 s⁻¹, the ka amounted to 1.23e+06 M⁻¹ s⁻¹, the Kd was 0.0397 nM and the t½ was determined as 3.93 h. In experiment [2] (37° C.), the kd came out at 1.23e-05 s⁻¹, the ka is 2.67e+06 M⁻¹ s⁻¹, the Kd is 0.0046 nM and the t½ came to 15.7 h. For the same molecule, the “Ratio of 11 nM Antibody Binding Signal (RLU) to isotype control, PMA-treated THP-1” value in experiment [3] is 5. The 50% inhibitory concentration (IC50) in experiment [4] (read-out: Dil-Acetylated LDL IC50) is 2.4 nM. The “Dil-Acetylated LDL % Inhibition” value in experiment [4] was found to be 65%.
